In US9956304B2, “Contrast agents, methods for preparing contrast agents, and methods of imaging” (GEORGIA STATE UNIVERSITY RESEARCH FOUNDATION, INC., priority 2012, dated 2018):
Several values for one entry are separate records, joined by “and”; a condition that tells them apart may be missing. Equal values may be shown once.

What was measured:
[1] = Gd3+ binding affinity by Tb3+-chelator buffer system and Gd3+ competition; settings: vs wild type protein scaffold
[2] = Water coordination number by Tb3+ luminescence lifetime; assay type: physicochemical; settings: Tb^3+ luminescence lifetime in H2O and D2O
Protocol: The water coordination number of Tb^3+ in ProCA was measured by Tb^3+ luminescence lifetime experiments. The determined water number for calcium-binding protein WT is 1.3, which is consistent with reported value^31.
Tb^3+ luminescent life time decay in H2O and D2O solvents is measured to characterize the water coordination number of the inner sphere of metal binding sites. WT calcium-binding protein has averaged water number of 1.3, which is consistent with reported value.

[3] = r1 and r2 relaxivity, mini-spec 60 MHz 37 C; assay type: physicochemical
[4] = r1 relaxivity at 7 T, inversion recovery; assay type: physicochemical; settings: room temperature
Excerpt: With the development of high field MRI scanner, there is a strong need to develop the contrast agents with high relaxivity in high magnetic field strength. However, the relaxivity of macromolecular contrast agents always has dramatic drop at high magnetic field. Caravan and Luther point out the contrast agents with optimized relaxivity in high field should have a rotation correlation time (τR) around 2 ns. We tested our Gd-calcium-binding protein variants in 7 T Varian MRI scanner using inversion recovery sequence. […] Other ProCA3s also have a per Gd r1 relaxivity around 20 mM^−1s^−1 at 7 T and room temperature.

[5] = In vitro MRI detection limit, T1-weighted spin echo at 7 T; assay type: physicochemical; settings: printed partly as 'at least'
Excerpt: Less contrast agents are acquired to acquired good image enhancement when the relaxivity of the contrast agent improved.

[6] = T1- and T2-weighted MRI of liver and blood vessels; assay type: in vivo, mice
Protocol: Because the enhanced T1- and T2-weighted images have different effects of imaging contrast (brighter or darker, respectively), there is an enhanced probability of detecting the targeted tumor tissue. In contrast, the currently available approved liver contrast agents such as Eovist® have a very short fast phase (sec.) and liver uptake phase (approximately 3 min) in human. The mouse halftime is much shorter. Due this limitation, with these agents, it is not possible to obtain both high quality imaging for small animal. For human, their applications are also limited by their low relaxivity and short half-life. It is possible to obtain very high quality imaging by applying our contrast agent to both low and high field strengths such as 0.47-9.4 T.
Longer blood circulation of ProCA will benefit the MRI guided intervention therapy […], since such therapy usually performed for a very long time. Long blood circulation time of ProCA32 in blood also promising for the application of DCE-MRI. Arterial input function (AIF) in DCE-MRI experiment is the key experiment for successful calculating tumor permeability. However, it is hard to accurate determine AIF of current clinically available MRI contrast agents, since the blood circulation time of current clinically available MRI contrast agents is too short. […]

[7] = Heat stability during purification; assay type: physicochemical
Protocol: These protein solutions were load to FPLC equipped with Hi-trap Q column. After binding to the column, the unbounded component was first washed with 7 column volumes (CV) of buffer A (10 mM HEPES buffer at pH 8.0). Then, buffer B (10 mM HEPES buffer, 1 M NaCl at pH 8.0) concentration was increased to 25% within 7 CV. The column was further washed with 25% of buffer B for 2 CV and then increase to 100% of buffer B of 1 CV to wash out every component bounded to the column. The fractions with ProCA32 elutions were determined by UV abs and SDS-PAGE.

[8] = mouse, in vivo
[9] = mouse, in vivo; remark: listed apart in the source
[10] = Serum stability (SDS-PAGE, mass spectrum, immuno-blot); settings: 50% serum

B1: ProCA32: parvalbumin-scaffold protein MRI contrast agent with two Gd3+ binding sites; calcium-binding protein variant (S56D, F103W) (protein)
chain: MSMTDLLNAEDIKKAVGAFSATDSFDHKKFFQMVGLKKKSADDVKKVFHMLDKDKDGFIEEDELGFILKGFSPDARDLSAKETKMLMAAGDKDGDGKIGVEEWSTLVAES
modifications: Gd3+ bound; ProCA3
- higher Tb^3+ and Gd^3+ binding affinity compared with wild type [1]: 10^11 fold
- water coordination number [2]: 0.4
- water coordination number ([2]; listed as PROCA32): 0.44
- per Gd r1 [3]: 30 mmol⁻¹ s⁻¹
- per particle r1 [3]: 60 mmol⁻¹ s⁻¹
- per Gd r1 relaxivity at 7 T [4]: 18 mM⁻¹ s⁻¹
- concentration detectable in vitro by MRI [5]: 2.5 µM and 2 µM
- liver in T2-weighted sequence ([6]; 7 min after tail vein injection): the liver became darker
- liver in T1-weighted spin echo ([6]; 15 min): the liver showing enhanced an MR signal
- heat stability [7]: very stable at 90 °C
- clearance [8]: about 0.13 l/kg
- excretion half-life [8]: around 2.8 hours
- blood half-life longer than that of Gd-DTPA [9]: more than 100 times
- stable in serum [10]: at least 3 days
